Data set [1] addresses Desulfovibrio vulgaris proline utilization A (Desulfovibrio vulgaris str. Hildenborough). Nature of the data set: SAXS.
Data set [2] addresses T1, Bdellovibrio bacteriovorus proline utilization A (BbPutA) (Bdellovibrio bacteriovorus, UniProt Q6MNK1).
T1 sequence (Q6MNK1 1-982): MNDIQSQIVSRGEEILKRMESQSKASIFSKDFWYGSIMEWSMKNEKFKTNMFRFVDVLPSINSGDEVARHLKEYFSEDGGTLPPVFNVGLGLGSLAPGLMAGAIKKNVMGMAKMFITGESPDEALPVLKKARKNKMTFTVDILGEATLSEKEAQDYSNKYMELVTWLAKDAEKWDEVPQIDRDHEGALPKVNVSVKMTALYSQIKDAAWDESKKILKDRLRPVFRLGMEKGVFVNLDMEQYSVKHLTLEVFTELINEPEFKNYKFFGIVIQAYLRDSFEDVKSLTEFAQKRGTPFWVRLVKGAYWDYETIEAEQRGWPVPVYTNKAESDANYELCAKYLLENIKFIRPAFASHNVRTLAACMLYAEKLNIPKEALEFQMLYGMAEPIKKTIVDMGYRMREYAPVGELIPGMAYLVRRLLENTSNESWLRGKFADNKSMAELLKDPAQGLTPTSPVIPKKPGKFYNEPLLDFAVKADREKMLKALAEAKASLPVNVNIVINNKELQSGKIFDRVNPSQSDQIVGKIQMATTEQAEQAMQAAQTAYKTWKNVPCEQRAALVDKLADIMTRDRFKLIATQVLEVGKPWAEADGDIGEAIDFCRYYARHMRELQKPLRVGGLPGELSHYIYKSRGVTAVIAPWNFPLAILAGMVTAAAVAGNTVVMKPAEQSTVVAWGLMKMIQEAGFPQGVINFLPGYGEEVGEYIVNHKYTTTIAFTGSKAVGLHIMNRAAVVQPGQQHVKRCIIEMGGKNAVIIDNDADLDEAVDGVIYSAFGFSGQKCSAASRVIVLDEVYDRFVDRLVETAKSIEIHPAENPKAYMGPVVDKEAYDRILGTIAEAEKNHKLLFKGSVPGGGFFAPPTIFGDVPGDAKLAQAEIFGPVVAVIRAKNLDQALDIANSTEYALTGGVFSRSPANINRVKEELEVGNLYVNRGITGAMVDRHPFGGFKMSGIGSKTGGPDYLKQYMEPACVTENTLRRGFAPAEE
Nature of the data set: X-ray crystal structure, […] Å, of the covalently inactivated enzyme. It counts as binding.

The data set “SAXS” deals with the molecule itself. Nature of the data set: SAXS.
Data set [3] concerns the molecule itself. Kind of data set: AUC.
Data set [4] deals with the molecule itself. Nature of the data set: AUC. This is another data set of the same source.

In general, stoichiometry N refers to the number of molecules, sites or subunits per partner or assembly.

In data set [1], “Desulfovibrio vulgaris proline utilization A (enzyme)” showed a stoichiometry N of 2. Consider `C#CCNCC(=O)O` [compound 1, N-propargylglycine], for which, in data set [2], the “X-ray crystal structure, 2.2 Å, of the covalently inactivated enzyme” value is 3-carbon link between Lys196 and the N5 of the FAD consistent with the presence of a covalent NPPG modification.

B1: Bdellovibrio bacteriovorus proline utilization A (enzyme, Bdellovibrio bacteriovorus HD100, UniProt Q6MNK1 1-982, looked up)
chain: T1 sequence (Q6MNK1 1-982)
On to B1, for which the “stoichiometry N” value in the data set “SAXS” was 2.

B2: Bdellovibrio bacteriovorus proline utilization A inactivated by N-propargylglycine (enzyme, Bdellovibrio bacteriovorus HD100, UniProt Q6MNK1 1-982, looked up)
chain: T1 sequence (Q6MNK1 1-982)
modifications: Lys196 covalently linked to the N5 atom of the FAD by a 3-carbon link (inactivation by N-propargylglycine)
In the case of B2, the “stoichiometry N” value in “AUC [3]” amounted to 2.

B3: Bradyrhizobium japonicum proline utilization A (enzyme, UniProt Q89E26 1-999, looked up)
chain: MPNIPPPFTAPYAPDDAEIAARLLPASHLSPPQEARIHRTATRLIEAIRKRDDRLGGVEDMLREFALSTKEGLALMVLAEALLRVPDARTADQFIEDKLGEGDFIHHETKSTAFLVNASAWALGLSARVIQPGETPDGTIGRLVKRLGAPAVRTATRQAMRLMGNHFVLGETIEQALERGKPRSGQKTRYSFDMLGEGARTAADARRYFDAYASAIETIGKAAGNHALPDRPGISVKLSALHPRFEAISRARVMVELVPQLLDLAQRAKAHDLNFTVDAEEADRLELSLDVIAATLADPSLKGWDGFGLAIQAYQKRASAVIDYVDALARAHDRKLMVRLVKGAYWDTEIKRAQERGLDGYPVFTRKAMTDLNYVACASKLLALRPRIFPQFATHNALTVATVLEMAEGSSGFEFQRLHGMGEALYEQLAKDHADIAYRTYAPVGSHRDLLAYLVRRLLENGANSSFVAQAADYRVPVPALLQRPADAIVRPQAAAHPRIPLPCDLFAPERRNSRGVEFGARTALDQLLTDVKAETGDLKPIADATPDQAHAAVAAARAGFAGWSRTPAGIRAAALEQAAHLLESRSAHFIALLQREGGKTLDDALSELREAADFCRYYAAQGRKLFGSETAMPGPTGESNALTMRGRGVFVAISPWNFPLAIFLGQVTAALMAGNSVVAKPAEQTPRIAREAVALLHEAGIPKSALYLVTGDGRIGAALTAHPDIAGVVFTGSTEVARSINRALAAKDGPIVPLIAETGGINAMIADATALPEQVADDVVTSAFRSAGQRCSALRLLFVQEDVADRMIEMVAGAARELKIGDPSDVATHVGPVIDVEAKQRLDAHIARMKTEARLHFAGPAPEGCFVAPHIFELTEAGQLTEEVFGPILHVVRYRPENLERVLRAIERTGYGLTLGVHSRIDDSIEAIIDRVQVGNIYVNRNMIGAVVGVQPFGGNGLSGTGPKAGGPHYLARFATEQTVTINTAAAGGNAALLAGEE
For B3, the “stoichiometry N” value in “AUC [4]” came to 4.
